Measured values reported in patent publication US20220098304A1 (JIANGSU HENGRUI MEDICINE, published 2022).

How the values were obtained:
[1] = biological target: T1, Cyno PD-1 antigen (purchased from Sino Biological) (cynomolgus monkey (Cyno; simian), UniProt B0LAJ3 25-170); assay: SPR (Biacore T200), antibody captured on Protein A chip, antigen in flow, 1:1 Langmuir
T1 construct: Bought protein, construct not described; also called simian PD-1; not shown: Tag or carrier of the Sino Biological product (probably a His tag)
Description: (§1) IgG was affinity captured by using a Protein A biosensor chip (Cat. #29127556, GE). Human PD-1 antigen (Cat. #10377H08H, Sino Biological) and Cyno PD-1 antigen (purchased from Sino Biological) flowed across the surface of the chip, and the binding and dissociation curves were obtained by real time detection of PD-1 antibody and antigen PD-1 reaction signals by a Biacore T200 instrument. After the dissociation of each experimental cycle was completed, the biosensor chip was washed and regenerated with 10 mM Glycine-HCl pH 1.5 buffer. The experimental buffer system was 1×HBS-EP buffer solution (Cat #BR-1001-88, GE). After the experiment, GE Biacore T200 Evaluation version 3.0 software was used to fit the data with a (1:1) Langmuir model, and the affinity value was obtained.

[2] = biological target: T2, Human PD-1-His protein (Cat. #10377H08H, Sino Biological) (human, UniProt Q15116 25-167); assay: as above
T2 construct: Bought protein; also called hPD-1-His; hu PD-1-his; not shown: His tag of the bought protein
Description: as §1

[3] = biological target: T3, Human PD-1-IgG1Fc fusion protein (human); assay: competition ELISA, PD-1-Fc coated, competitor biotin-labeled PD-L2
T3 construct: also called PD-1-Fc; Hu PD-1-Fc
Procedure: (§2) CB buffer pH 9.6 (1.59 g Na₂CO₃ and 2.93 g NaHCO₃ dissolved in 1 L distilled water) was used to dilute PD-1-Fc to 1 μg/ml, which was added to the 96-well plates at a volume of 100 μl/well and allowed to stand at 4° C. for 16 h-20 h. PBS buffer was aspirated from the 96-well plates, and the plates were washed with PBST (pH 7.4 PBS containing 0.05% tween20) buffer once. 120 μl/well PB ST/1% milk was added and incubated at room temperature for 1 h for blocking. The blocking solution was removed and the plates were washed with PBST buffer once. 90 μl anti-PD-1 antibody to be tested diluted to appropriate concentration with the sample diluent (pH 7.4 PBS containing 5% BSA, 0.05% Tween20) was added and pre-incubated at 4° C. for 1 h. […] The reaction system was removed and the plates were washed with PBST 6 times. 100 μl/well Streptavidin-Peroxidase Polymer 1:400 diluted with PBST buffer was added and incubated with shaking at room temperature for 50 min. The plates were washed with PBST 6 times. 100 μl/well TMB was added and incubated at room temperature for 5-10 min. 100 μl/well 1 M H₂SO₄ was added to stop the reaction.

[4] = biological target: T2, Human PD-1-His protein (Cat. …); assay: ELISA, PD-1-His coated, HRP anti-human IgG detection
[5] = biological target: T2, Human PD-1-His protein (Cat. …); assay: SPR (Biacore), antibody captured on Protein A chip, PD-1 in flow
Description: as §1

[6] = biological target: T3, Human PD-1-IgG1Fc fusion protein; assay: competition ELISA, PD-1-Fc coated, competitor biotin-labeled PD-L1
Procedure: as §2

Kd [1] [nM]	koff [1] [s⁻¹]	kon [1] [M⁻¹ s⁻¹]	Kd [2] [nM]	koff [2] [s⁻¹]	kon [2] [M⁻¹ s⁻¹]	IC50 [3] [µg/mL]	EC50 [4] [µg/mL]	OD value MAX [4] [OD]	Kd [5] [nM]	koff [5] [s⁻¹]	kon [5] [M⁻¹ s⁻¹]	IC50 [6] [µg/mL]	Binder
2.62	0.000126	47900	1.86	0.000113	60600	0.245	0.237	1.46	2.71	0.000114	42200	0.0924	Hu23-11.IgG4AA (antibody, V domains shown, Full-length IgG4-AA, kappa; also called Hu23LCDR1 (N28T)) VH: EVQLVQSGAEVKKPGSSVKVSCKASGGTFSDYEMHWVRQAPGQGLEWMGLIDPETGGTVYNQKFKDRVTITADKSTSTAYMELSSLRSEDTAVYYCARERFSYYGSTSDWYFDVWGQGTTVTVSS VL: DIVMTQTPLSLPVTPGEPASISCRSSQSLVHSTGNTYLEWYLQKPGQSPQLLIYKVSNRFSGVPDRFSGSGSGTDFTLKISRVEAEDVGVYYCFQGSHVPYTFGGGTKVEIKR
4.11	0.000475	116000	3.25	0.000278	85600	0.206	0.136	1.26	3.18	0.000315	99000	0.0786	Hu32a-85.IgG4AA (antibody, V domains shown, Full-length IgG4-AA, kappa) VH: EVQLVQSGAEVKKPGSSVKVSCKASDFTFTDYEIHWVKQAPGHGLEWIGLFDPETGGIVYNQKFKGKATLTADKSTSTAYMEFSSLRSEDTAVYYCTREGYNRDWYFDVWGQGTTVTVSS VL: DIVMTQTPLSLPVTPGEPASISCRSSQSLVHSTGNTYLEWYLQKPGQSPQLLIYKVSNRFSGVPDRFSGSGSGTDFTLKISRVEAEDVGVYYCFQGSHVPYTFGGGTKVEIKR
–	–	–	–	–	–	–	–	–	5.3	0.000415	78300	–	murine antibody M32 (antibody, V domains shown) VH: QVQLQQSGAELVRPGASVTLSCKASDFTFTDYEIHWVKQTPVHGLEWIGLFDPETGGIVYNQKFKGKAILTADKSSNTAYMEFRSLTSEDSAVYYCTREGYNRDWYFDVWGTGTTVTVSS VL: DVLMTQTPLSLPVSLGDQASISCRSSQSIVHSNGNTYLEWYLQKPGQSPKLLIYKVSNRFSGVPDRFSGSGSGTDFTLKISRVEAEDLGIYYCFQGSHVPYAFGGGTKLEIK
–	–	–	–	–	–	–	–	–	19.3	0.00128	66100	–	Hu33-1.IgG4AA (antibody, V domains shown, Full-length IgG4-AA, kappa) VH: EVQLVESGGGLVQPGGSLRLSCAASGFTFSSYAMSWVRQAPGKGLEWVATISGGGVDTYYQDNVQGRFTISRDNAKNSLYLQMNSLRAEDTAVYYCARPYGHGYFDVWGQGTTVTVSS VL: DIQMTQSPSSLSASVGDRVTITCRASQDINNFLNWYQQKPGKAPKLLIYYTSSLHSGVPSRFSGSGSGTDFTLTISSLQPEDFATYYCQQGNTLPWTFGGGTKVEIKR
–	–	–	–	–	–	–	–	–	31.4	0.00255	81100	–	Hu33-4.IgG4AA (antibody, V domains shown, Full-length IgG4-AA, kappa) VH: EVQLVESGGGLVQPGGSLRLSCAASGFTFSSYAMSWVRQAPGKGLEWVATISGGGVDTYYQDNVQGRFTISRDNAKNSLYLQMNSLRAEDTAVYYCARPYGHGYFDVWGQGTTVTVSS VL: DIQMTQSPSSLSASVGDRVTITCRASQDINNFLNWYQQKPGKAPKLLIYYTSSLHSGVPSRFSGSGSGTDYTLTISSLQPEDFATYYCQQGNTLPWTFGGGTKVEIKR
–	–	–	–	–	–	–	–	–	1.06	0.000162	153000	–	Hu33-8.IgG4AA (antibody, Full-length IgG4-AA, kappa) heavy: not shown light: DIQMTQSPSSLSASVGDRVTITCRASQDINNFLNWYQQKPGGAVKLLIYYTSSLHSGVPSRFSGSGSGTDYTLTISSLQPEDFATYYCQQGNTLPWTFGGGTKVEIKRTVAAPSVFIFPPSDEQLKSGTASVVCLLNNFYPREAKVQWKVDNALQSGNSQESVTEQDSKDSTYSLSSTLTLSKADYEKHKVYACEVTHQGLSSPVTKSFNRGEC
–	–	–	–	–	–	–	–	–	1.09	0.000153	140000	–	Hu33-9.IgG4AA (antibody, Full-length IgG4-AA, kappa) heavy: not shown light: DIQMTQSPSSLSASVGDRVTITCRASQDINNFLNWYQQKPGGAVKLLIYYTSSLHSGVPSRFSGSGSGTDYTLTISSLQPEDFATYYCQQGNTLPWTFGGGTKVEIKRTVAAPSVFIFPPSDEQLKSGTASVVCLLNNFYPREAKVQWKVDNALQSGNSQESVTEQDSKDSTYSLSSTLTLSKADYEKHKVYACEVTHQGLSSPVTKSFNRGEC
–	–	–	–	–	–	–	–	–	33.8	0.0026	76900	–	Hu33-7.IgG4AA (antibody, V domains shown, Full-length IgG4-AA, kappa) VH: EVQLVESGGGLVQPGGSLRLSCAASGFTFSSYAMSWVRQAPGKGLEWVATISGGGVDTYYQDNVQGRFTISRDNAKNSLYLQMNSLRAEDTAVYYCARPYGHGYFDVWGQGTTVTVSS VL: DIQMTQSPSSLSASVGDRVTITCRASQDINNFLNWYQQKPGGAVKLLIYYTSSLHSGVPSRFSGSGSGTDYTLTISSLQPEDFATYYCQQGNTLPWTFGGGTKVEIKR
–	–	–	–	–	–	0.225	0.113	1.21	–	–	–	0.11	H005-1 (positive control anti-PD-1 antibody, see H005-1 antibody in WO2015085847) (antibody, V domains shown) VH: EVQLVESGGGLVQPGGSLRLSCAASGFTFSSYMMSWVRQAPGKGLEWVATISGGGANTYYPDSVKGRFTISRDNAKNSLYLQMNSLRAEDTAVYYCARQLYYFDYWGQGTTVTVSS VL: DIQMTQSPSSLSASVGDRVTITCLASQTIGTWLTWYQQKPGKAPKLLIYTATSLADGVPSRFSGSGSGTDFTLTISSLQPEDFATYYCQQVYSIPWTFGGGTKVEIKR
–	–	–	–	–	–	–	–	–	0.737	0.000227	308000	–	murine antibody M33 (antibody, V domains shown) VH: KVMLVESGGGLVKPGGSLKLSCAASGFTFSSYAMSWVRQTPEKRLEWVATISGGGVDTYYQDNVQGRFTISRDNAKNTLYLQMSSLRSEDTALYYCASPYGHGYFDVWGTGTTVTVSS VL: DIQMTQTTSSLSASLGDRVTISCRASQDINNFLNWYQQKPDGTVKLLIYYTSSLHSGVPSRFSGSGSGTDYSLTISNLEQEDIATYFCQQGNTLPWTFGGGTKLEIK
